Values quoted from earlier work as cited in US20200069786A1, “COMPOSITION AND PROCESS FOR PREPARING VACCINE” (TREOS BIO ZRT., priority 2018, published 2020).
Read-outs that look alike come from different tables or passages of the source.

B1: PAGE2 (protein, UniProt Q7Z2X7 1-111, looked up)
P antigen family member 2: MSELLRARSQSSERGNDQESSQPVGSVIVQEPTEEKRQEEEPPTDNQGIAPSGEIENQAVPAFQGPDMEAFQQELALLKIEDEPGDGPDVREGIMPTFDLTKVLEAGDAQP
B2: HORMAD2 (protein, UniProt Q8N7B1 1-307, looked up)
HORMA domain-containing …: MATAQLSHCITIHKASKETVFPSQITNEHESLKMVKKLFATSISCITYLRGLFPESSYGERHLDDLSLKILREDKKCPGSLHIIRWIQGCFDALEKRYLRMAVLTLYTDPMGSEKVTEMYQFKFKYTKEGATMDFDSHSSSTSFESGTNNEDIKKASVLLIRKLYILMQDLEPLPNNVVLTMKLHYYNAVTPHDYQPLGFKEGVNSHFLLFDKEPINVQVGFVSTGFHSMKVKVMTEATKVIDLENNLFRENSTTEIAHQGLDCDEEEECNDHIQRMNFVCSQQSSECSRKKRKVSEPVKVFIPNRK
B3: MAGE-A5 (protein, UniProt P43359 1-124, looked up)
Putative melanoma-associated …: MSLEQKSQHCKPEEGLDTQEEALGLVGVQAATTEEQEAVSSSSPLVPGTLGEVPAAGSPGPLKSPQGASAIPTAIDFTLWRQSIKGSSNQEEEGPSTSPDPESVFRAALSKKVADLIHFLLLKY
B4: LIPI (protein, UniProt Q6XZB0 16-460, looked up)
Lipase member I: DNKRPCLEFSQLSVKDSFRDLFIPRIETILMMYTRNNLNCAEPLFEQNNSLNVNFNTQKKTVWLIHGYRPVGSIPLWLQNFVRILLNEEDMNVIVVDWSRGATTFIYNRAVKNTRKVAVSLSVHIKNLLKHGASLDNFHFIGVSLGAHISGFVGKIFHGQLGRITGLDPAGPRFSRKPPYSRLDYTDAKFVDVIHSDSNGLGIQEPLGHIDFYPNGGNKQPGCPKSIFSGIQFIKCNHQRAVHLFMASLETNCNFISFPCRSYKDYKTSLCVDCDCFKEKSCPRLGYQAKLFKGVLKERMEGRPLRTTVFLDTSGTYPFCTYYFVLSIIVPDKTMMDGSFSFKLLNQLGMIEEPRLYEKNKPFYKLQEVKILAQFYNDFVNISSIGLTYFQSSNLQCSTCTYKIQSLMLKSLTYPERPPLCRYNIVLKDREEVFLNPNTCTPKNT
B5: MAGE-B3 (protein, UniProt O15480 1-346, looked up)
Melanoma-associated antigen B3: MPRGQKSTLHAREKRQQTRGQTQDHQGAQITATNKKKVSFSSPLILGATIQKKSAGRSRSALKKPQRALSTTTSVDVSYKKSYKGANSKIEKKQSFSQGLSSTVQSRTDPLIMKTNMLVQFLMEMYKMKKPIMKADMLKIVQKSHKNCFPEILKKASFNMEVVFGVDLKKVDSTKDSYVLVSKMDLPNNGTVTRGRGFPKTGLLLNLLGVIFMKGNCATEEKIWEFLNKMRIYDGKKHFIFGEPRKLITQDLVKLKYLEYRQVPNSNPARYEFLWGPRAHAETSKMKVLEFWAKVNKTVPSAFQFWYEEALRDEEERVQAAAMLNDGSSAMGRKCSKAKASSSSHA
B6: CTAGE1 (protein, UniProt Q96RT6 1-745, looked up)
cTAGE family member 2: MRPDSHPYGFPWELVIRAAVAGFFAVLFLWRSFRSVTSRLYVRREKKFAVALSGLIEEKCKLLEKFSLVQKEYEGYEVESSLKNASFEKEATEAQSLEATCEKLNRFNSELVHEILCLEKELKEEKSKHSEQNELMADISKRIQSLEDESKSLKSQVAEAKMTFKRFQANEERLEIEIQDAWKENSELQESQKQLLQEAEVWKEQVSELIKQKRTFEDSKVHAEQVLNDKENHIKTLTERLLKMKDGVAMLEEDVTDDDNLELEMNSESEDGAYLDNPPKGALKKLIHAAKLNASLKTLEGERNQIYIQLSEVDKTKEELTEHIKNLQTEQASLQSENTHFESENQKLQQKLKVMTELYQENEMKLYRKLIVEEKCRLEKEEKLSKVDEMISHATEELETYRKRAKDLKEFEKTIHFYQKKIILHEKKAHDNWSAAWTAERNLNDLRKENAHNRQKLTEIEFKIKLLEKDPYGLDVPNTAFGRQHSPYGPSPLGWPSSETRASLYPPTLLEGPLRLSPLLPRGGGRGSRGPGNPPDHQITKERGESSCDRLTDPHRAPSDAGPLAPPWEQDYRMMFPPPGQSYPDSALPPQRQDRFYSNCARLSGPAELRSFNMPSLDKMDGSMPSEMESSRNDTKDNLGNLKVPDSSLPAENEATGPGFVPPPLAPIRGLLFPVDTRGPFIRRGPPFPPPPPGTVFGASPDYFSPRDVPGPPRAPFAMRNVYLPRGFLPYRPPRPAFFPPAPTF
B7: TEX14 (protein, UniProt Q8IWB6 1-1497, looked up)
Inactive …: MSRAVRLPVPCPVQLGTLRNDSLEAQLHEYVKQGNYVKVKKILKKGIYVDAVNSLGQTALFVAALLGLRKFVDVLVDYGSDPNHRCFDGSTPVHAAAFSGNQWILSKLLDAGGDLRLHDERGQNPKTWALTAGKERSTQIVEFMQRCASHMQAIIQGFSYDLLKKIDSPQRLVYSPSWCGGLVQGNPNGSPNRLLKAGVISAQNIYSFGFGKAMPWFQFYLTGATQMAYLGSLPVIGEKEVIQADDEPTFSFFSGPYMVMTNLVWNGSRVTVKELNLPTHPHCSRLRLADLLIAEQEHSSKLRHPYLLQLMAVCLSQDLEKTRLVYERITIGTLFSVLHERRSQFPVLHMEVIVHLLLQISDALRYLHFQGFIHRSLSSYAVHIISPGEARLTNLEYMLESEDRGVQRDLTRVPLPTQLYNWAAPEVILQKAATVKSDIYSFSMIMQEILTDDIPWKGLDGSVVKKAVVSGNYLEADVRLPKPYYDIVKSGIHVKQKDRTMNLQDIRYILKNDLKDFTGAQRTQPTESPRVQRYGLHPDVNVYLGLTSEHPRETPDMEIIELKEMGSQPHSPRVHSLFTEGTLDPQAPDPCLMARETQNQDAPCPAPFMAEEASSPSTGQPSLCSFEINEIYSGCLILEDDIEEPPGAASSLEADGPNQVDELKSMEEELDKMEREACCFGSEDESSSKAETEYSFDDWDWQNGSLSSLSLPESTREAKSNLNNMSTTEEYLISKCVLDLKIMQTIMHENDDRLRNIEQILDEVEMKQKEQEERMSLWATSREFTNAYKLPLAVGPPSLNYIPPVLQLSGGQKPDTSGNYPTLPRFPRMLPTLCDPGKQNTDEQFQCTQGAKDSLETSRIQNTSSQGRPRESTAQAKATQFNSALFTLSSHRQGPSASPSCHWDSTRMSVEPVSSEIYNAESRNKDDGKVHLKWKMEVKEMAKKAATGQLTVPPWHPQSSLTLESEAENEPDALLQPPIRSPENTDWQRVIEYHRENDEPRGNGKFDKTGNNDCDSDQHGRQPRLGSFTSIRHPSPRQKEQPEHSEAFQASSDTLVAVEKSYSHQSMQSTCSPESSEDITDEFLTPDGEYFYSSTAQENLALETSSPIEEDFEGIQGAFAQPQVSGEEKFQMRKILGKNAEILPRSQFQPVRSTEDEQEETSKESPKELKEKDISLTDIQDLSSISYEPDSSFKEASCKTPKINHAPTSVSTPLSPGSVSSAASQYKDCLESITFQVKTEFASCWNSQEFIQTLSDDFISVRERAKKLDSLLTSSETPPSRLTGLKRLSSFIGAGSPSLVKACDSSPPHATQRRSLPKVEAFSQHHIDELPPPSQELLDDIELLKQQQGSSTVLHENTASDGGGTANDQRHLEEQETDSKKEDSSMLLSKETEDLGEDTERAHSTLDEDLERWLQPPEESVELQDLPKGSERETNIKDQKVGEEKRKREDSITPERRKSEGVLGTSEEDELKSCFWKRLGWSESSRIIVLDQSDLSD
B8: FAM133A (protein, UniProt Q8N9E0 1-248, looked up)
Protein FAM133A: MGKRDNRVAYMNPIAMARWRGPTQSVGPTIQDYLNRPRPTWEEVKKQLENKKTGSKALAEFEEKMNENWKKELEKSREKLLSGNESSSKKRERKKKRKKKSCRSSSSSSSSDSSSSSSDSEDEEKKQGKRRKKKKNRSYKSSQSSTHESESESKESVKKKKKSKDETEKEKDVRSLSKKRKKSYPDDKPLSSESSSESDYEEDVQAKKKRRCEEREQAKEKVKKKKKKQHKKHSKKKKKKSGSSHKSR
B9: CTNNA2 (protein, UniProt P26232 1-953, looked up)
Catenin alpha-2: MTSATSPIILKWDPKSLEIRTLTVERLLEPLVTQVTTLVNTSNKGPSGKKKGRSKKAHVLAASVEQATQNFLEKGEQIAKESQDLKEELVAAVEDVRKQGETMRIASSEFADDPCSSVKRGTMVRAARALLSAVTRLLILADMADVMRLLSHLKIVEEALEAVKNATNEQDLANRFKEFGKEMVKLNYVAARRQQELKDPHCRDEMAAARGALKKNATMLYTASQAFLRHPDVAATRANRDYVFKQVQEAIAGISNAAQATSPTDEAKGHTGIGELAAALNEFDNKIILDPMTFSEARFRPSLEERLESIISGAALMADSSCTRDDRRERIVAECNAVRQALQDLLSEYMNNTGRKEKGDPLNIAIDKMTKKTRDLRRQLRKAVMDHISDSFLETNVPLLVLIEAAKSGNEKEVKEYAQVFREHANKLVEVANLACSISNNEEGVKLVRMAATQIDSLCPQVINAALTLAARPQSKVAQDNMDVFKDQWEKQVRVLTEAVDDITSVDDFLSVSENHILEDVNKCVIALQEGDVDTLDRTAGAIRGRAARVIHIINAEMENYEAGVYTEKVLEATKLLSETVMPRFAEQVEVAIEALSANVPQPFEENEFIDASRLVYDGVRDIRKAVLMIRTPEELEDDSDFEQEDYDVRSRTSVQTEDDQLIAGQSARAIMAQLPQEEKAKIAEQVEIFHQEKSKLDAEVAKWDDSGNDIIVLAKQMCMIMMEMTDFTRGKGPLKNTSDVINAAKKIAEAGSRMDKLARAVADQCPDSACKQDLLAYLQRIALYCHQLNICSKVKAEVQNLGGELIVSGTGVQSTFTTFYEVDCDVIDGGRASQLSTHLPTCAEGAPIGSGSSDSSMLDSATSLIQAAKNLMNAVVLTVKASYVASTKYQKVYGTAAVNSPVVSWKMKAPEKKPLVKREKPEEFQTRVRRGSQKKHISPVQALSEFKAMDSF
B10: ADAM29 (protein, UniProt Q9UKF5 194-820, looked up)
Disintegrin and …: WIHFRIVEIVVVIDNYLYIRYERNDSKLLEDLYVIVNIVDSILDVIGVKVLLFGLEIWTNKNLIVVDDVRKSVHLYCKWKSENITPRMQHDTSHLFTTLGLRGLSGIGAFRGMCTPHRSCAIVTFMNKTLGTFSIAVAHHLGHNLGMNHDEDTCRCSQPRCIMHEGNPPITKFSNCSYGDFWEYTVERTKCLLETVHTKDIFNVKRCGNGVVEEGEECDCGPLKHCAKDPCCLSNCTLTDGSTCAFGLCCKDCKFLPSGKVCRKEVNECDLPEWCNGTSHKCPDDFYVEDGIPCKERGYCYEKSCHDRNEQCRRIFGAGANTASETCYKELNTLGDRVGHCGIKNATYIKCNISDVQCGRIQCENVTEIPNMSDHTTVHWARFNDIMCWSTDYHLGMKGPDIGEVKDGTECGIDHICIHRHCVHITILNSNCSPAFCNKRGICNNKHHCHCNYLWDPPNCLIKGYGGSVDSGPPPKRKKKKKFCYLCILLLIVLFILLCCLYRLCKKSKPIKKQQDVQTPSAKEEEKIQRRPHELPPQSQPWVMPSQSQPPVTPSQSHPQVMPSQSQPPVTPSQSQPRVMPSQSQPPVMPSQSHPQLTPSQSQPPVTPSQRQPQLMPSQSQPPVTPS
B11: TMEM31 (protein, UniProt Q5JXX7 1-168, looked up)
Transmembrane protein 31: MRLTEKSEGEQQLKPNNSNAPNEDQEEEIQQSEQHTPARQRTQRADTQPSRCRLPSRRTPTTSSDRTINLLEVLPWPTEWIFNPYRLPALFELYPEFLLVFKEAFHDISHCLKAQMEKIGLPIILHLFALSTLYFYKFFLPTILSLSFFILLVLLLLLFIIVFILIFF

Test system: TSA
[1] = TSA expression rate in LEUKEMIAS
[2] = TSA expression rate in LUNG cancer
[3] = TSA expression rate in MELANOMA

Molecule | Expression Rate (ER) % [1] [%] | Expression Rate (ER) % [2] [%] | further results
B1 | 4 |  | 
B2 |  | 5 | 
B3 |  |  | TSA Expression Rate (ER) (BREAST): 9%; Expression Rate (ER) % (TSA expression rate in CRC): 7%; Expression Rate (ER) % [3]: 25%
B4 | 6 | 0 | Expression Rate (ER) % (TSA expression rate in CRC): 0%; Expression Rate (ER) % (TSA expression rate in HEAD and NECK): 0%; Expression Rate (ER) % (TSA expression rate in Kidney): 25%; Expression Rate (ER) % [3]: 0%
B5 |  | 0 | 
B6 | 72 |  | Expression Rate (ER) % (TSA expression rate in BLADDER cancer): 53%; Expression Rate (ER) % (TSA expression rate in CRC): 19%
B7 | 5 |  | 
B8 | 83 |  | 
B9 | 45 |  | 
B10 |  | 7 | 
B11 |  |  | Expression Rate (ER) % [3]: 63%
